# Source: patent publication US20220033484A1 (FAPON BIOTECH, published 2022)
# Residue numbers refer to the chain shown, from its start.
# B1: WT 1-51 (antibody, V domains shown)
# VH: EVQLQQSGPELVKPGASVKMSCKASGYSFTIYVVHWVKQKPGQGLEWIGYIQPYIDGTRYNEKFKGKATLTVDKSSSTAFMELSSLTSEDSAVYYCARTGYGQYGLAWLAYWGQGTLVTVSA
# VL: QAVVIQESALTTSPGETVTLTCRSSSGAATTSQYANWVQEKPDHLFTGLIGGSNNRAPGVPARFSGSLIGDKAALTITGAQTEDEAIYFCAIVYSNHWVFGGGTKLTVLG
# notes: Heavy chain built as m63
# B2: Mutation 1-1 (antibody, V domains shown)
# VH: B1 VH with S28T, V34L, R59K, T99S, Q103N
# VL: B1 VL with S26T, Q33N, N54Q, I92L, H97Q
# notes: built as m3
# B3: Mutation 1-2 (antibody, V domains shown)
# VH: B1 VH with S28T, V34I, R59K, T99S, Q103G
# VL: B1 VL with S26T, A29V, I92L, H97N
# notes: Built as m8
# B4: Mutation 1-3 (antibody, V domains shown)
# VH: B1 VH with S28T, I31L, R59K, T99S
# VL: B1 VL with S26T, A29V, Q33N, N54Q, I92L, H97Q
# notes: Built as m8
# B5: Mutation 1-4 (antibody, V domains shown)
# VH: B1 VH with S28T, I31L, V34L, R59K, T99S, Q103N
# VL: B1 VL with S26T, I92L, H97N
# notes: Built as m8
# B6: Mutation 1-5 (antibody, V domains shown)
# VH: B1 VH with S28T, I31L, V34I, R59K, T99S, Q103G
# VL: B1 VL with S26T, Q33N, N54Q, I92L
# notes: Built as m8
# B7: Mutation 1-6 (antibody, V domains shown)
# VH: B1 VH with S28T, I55L, R59K, T99S
# VL: B1 VL with S26T, A29V, I92L, H97N
# notes: Built as m8
# B8: Mutation 1-7 (antibody, V domains shown)
# VH: B1 VH with S28T, V34L, I55L, R59K, T99S, Q103N
# VL: B1 VL with S26T, A29V, Q33N, N54Q, I92L
# notes: Built as m8
# B9: Mutation 1-8 (antibody, V domains shown)
# VH: B1 VH with S28T, V34I, I55L, R59K, T99S, Q103G
# VL: B1 VL with S26T, I92L, H97Q
# notes: Built as m8
# B10: Mutation 1-9 (antibody, V domains shown)
# VH: B1 VH with S28T, I31L, I55L, R59K, T99S
# VL: B1 VL with S26T, Q33N, N54Q, I92L
# notes: Built as m8
# B11: Mutation 1-10 (antibody, V domains shown)
# VH: B1 VH with S28T, I31L, V34L, I55L, R59K, T99S, Q103N
# VL: B1 VL with S26T, A29V, I92L, H97Q
# notes: Built as m8
# B12: Mutation 1-13 (antibody, V domains shown)
# VH: B1 VH with S28T, V34L, Q52N, R59K, T99S, Q103N
# VL: B1 VL with S26T, Q33N, N54Q, I92L, H97N
# notes: Built as m8
# B13: Mutation 1-14 (antibody, V domains shown)
# VH: B1 VH with S28T, V34I, Q52N, R59K, T99S, Q103G
# VL: B1 VL with S26T, A29V, I92L
# notes: Built as m8
# B14: Mutation 1-15 (antibody, V domains shown)
# VH: B1 VH with S28T, I31L, Q52N, R59K, T99S
# VL: B1 VL with S26T, A29V, Q33N, N54Q, I92L, H97N
# notes: Built as m8
# B15: Mutation 1-16 (antibody, V domains shown)
# VH: B1 VH with S28T, I31L, V34L, Q52N, I55L, R59K, T99S, Q103N
# VL: B1 VL with S26T, I92L
# notes: Built as m8
# B16: Mutation 1-18 (antibody, V domains shown)
# VH: B1 VH with S28T, Q52N, I55L, R59K, T99S
# VL: B1 VL with S26T, A29V, I92L
# notes: Built as m8
# B17: Mutation 1-20 (antibody, V domains shown)
# VH: B1 VH with S28T, V34I, Q52Y, R59K, T99S, Q103G
# VL: B1 VL with S26T, I92L, H97N
# notes: Built as m8
# B18: Mutation 1-21 (antibody, V domains shown)
# VH: B1 VH with S28T, I31L, Q52Y, R59K, T99S
# VL: B1 VL with S26T, Q33N, N54Q, I92L, H97Q
# notes: Built as m8
# B19: Mutation 1-22 (antibody, V domains shown)
# VH: B1 VH with S28T, I31L, V34L, Q52Y, R59K, T99S, Q103N
# VL: B1 VL with S26T, A29V, I92L, H97N
# notes: Built as m8
# B20: Mutation 1-23 (antibody, V domains shown)
# VH: B1 VH with S28T, I31L, V34I, Q52Y, R59K, T99S, Q103G
# VL: B1 VL with S26T, A29V, Q33N, N54Q, I92L
# notes: Built as m8
# B21: Mutation 1-24 (antibody, V domains shown)
# VH: B1 VH with S28T, Q52Y, I55L, R59K, T99S
# VL: B1 VL with S26T, I92L, H97N
# notes: Built as m8
# B22: Mutation 1-25 (antibody, V domains shown)
# VH: B1 VH with S28T, V34L, Q52Y, I55L, R59K, T99S, Q103N
# VL: B1 VL with S26T, Q33N, N54Q, I92L
# notes: Built as m8
# B23: Mutation 1-26 (antibody, V domains shown)
# VH: B1 VH with S28T, V34I, Q52Y, I55L, R59K, T99S, Q103G
# VL: B1 VL with S26T, A29V, I92L, H97Q
# notes: Built as m8
# B24: Mutation 1-27 (antibody, V domains shown)
# VH: B1 VH with S28T, I31L, Q52Y, I55L, R59K, T99S
# VL: B1 VL with S26T, A29V, Q33N, N54Q, I92L
# notes: Built as m8
# B25: Mutation 1-28 (antibody, V domains shown)
# VH: B1 VH with S28T, I31L, V34L, Q52Y, I55L, R59K, T99S, Q103N
# VL: B1 VL with S26T, I92L, H97Q
# notes: Built as m8
# B26: Mutation 1-29 (antibody, V domains shown)
# VH: B1 VH with S28T, I31L, V34I, R59K, T99S, Q103G
# VL: B1 VL with S26T, N54Q, I92L, H97N
# notes: Built as m8
# B27: Mutation 1-30 (antibody, V domains shown)
# VH: B1 VH with S28T, I55L, R59K, T99S
# VL: B1 VL with S26T, I92L, H97Q
# notes: Built as m8
# B28: Mutation 1-31 (antibody, V domains shown)
# VH: B1 VH with S28T, V34L, Q52N, R59K, T99S, Q103N
# VL: B1 VL with S26T, N54Q, I92L, H97N
# notes: Built as m8
# B29: Mutation 1-32 (antibody, V domains shown)
# VH: B1 VH with S28T, V34I, Q52N, I55L, R59K, T99S, Q103G
# VL: B1 VL with S26T, Q33N, I92L
# notes: Built as m8
# B30: Mutation 1-33 (antibody, V domains shown)
# VH: B1 VH with S28T, I31L, Q52Y, R59K, T99S, Q103G
# VL: B1 VL with S26T, N54Q, I92L, H97N
# notes: Built as m8
# B31: Mutation 1-34 (antibody, V domains shown)
# VH: B1 VH with S28T, I31L, V34L, R59K, T99S, Q103N
# VL: B1 VL with S26T, Q33N, I92L
# notes: Built as m8
# B32: Mutation 1-35 (antibody, V domains shown)
# VH: B1 VH with S28T, I31L, V34I, I55L, R59K, T99S, Q103G
# VL: B1 VL with S26T, Q33N, N54Q, I92L, H97Q
# notes: Built as m8
# B33: Mutation 1-36 (antibody, V domains shown)
# VH: B1 VH with S28T, Q52N, R59K, T99S
# VL: B1 VL with S26T, A29V, I92L
# notes: Built as m8; CDR-VL1 cell printed 'VQ', read as V/Q
# B34: Mutation 1-37 (antibody, V domains shown)
# VH: B1 VH with S28T, V34L, Q52N, I55L, R59K, T99S, Q103N
# VL: B1 VL with S26T, A29V, N54Q, I92L, H97Q
# notes: Built as m8
# B35: Mutation 1-38 (antibody, V domains shown)
# VH: B1 VH with S28T, V34I, Q52Y, R59K, T99S, Q103G
# VL: B1 VL with S26T, A29V, I92L, H97N
# notes: Built as m8
# B36: Mutation 1-39 (antibody, V domains shown)
# VH: B1 VH with S28T, I31L, I55L, R59K, T99S
# VL: B1 VL with S26T, A29V, Q33N, N54Q, I92L, H97Q
# notes: Built as m8
# B37: Mutation 1-40 (antibody, V domains shown)
# VH: B1 VH with S28T, V34L, I55L, R59K, T99S, Q103N
# VL: B1 VL with S26T, A29V, Q33N, I92L, H97N
# notes: Built as m8
# B38: Mutation 1-42 (antibody, V domains shown)
# VH: B1 VH with S28T, I31L, Q52N, I55L, R59K, T99S
# VL: B1 VL with S26T, A29V, Q33N, I92L
# notes: Built as m8
# Target: T1, cTnI quality control product recombinant protein (human, UniProt P19429 2-210, limits assumed)
# T1 construct: treated as the same molecule; also called cTnI antigen; cardiac troponin I
# T1 sequence (P19429 2-210 limits assumed): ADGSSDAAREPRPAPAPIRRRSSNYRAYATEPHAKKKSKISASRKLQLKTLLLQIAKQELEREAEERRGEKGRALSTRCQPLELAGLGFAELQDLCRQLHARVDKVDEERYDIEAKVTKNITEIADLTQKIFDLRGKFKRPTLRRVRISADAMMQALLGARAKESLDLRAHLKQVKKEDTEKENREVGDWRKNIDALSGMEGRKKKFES
# Experiment: AMC sensor, antibody immobilised, cTnI in solution
# Method: Operating process: it is equilibrated in Buffer 1 (PBST) for 60 s, the antibody is immobilized in an antibody solution for 300 s, incubated in Buffer 2 (PBST) for 180 s, bound in antigen solution for 420 s, dissociated in the Buffer 2 for 1200 s, 10 mM of GLY solution with pH 1.69 and Buffer 3 are used for sensor regeneration, and data is output. KD represents an equilibrium dissociation constant, namely the affinity; Kon represents a binding rate; and Kd is represents a dissociation rate.
Binder,Kd [nM],koff [s⁻¹],kon [M⁻¹ s⁻¹]
B1,35.4,0.000527,14900
B2,8.27,0.000712,86100
B3,7.64,0.00061,79900
B4,0.399,9.54e-06,23900
B5,5.03,0.000232,46200
B6,1.2,4.4e-05,36800
B7,0.697,5.34e-05,76600
B8,2.77,0.000176,63600
B9,9.31,0.000244,26200
B10,5.43,0.00024,44200
B11,0.731,4.12e-05,56300
B12,0.139,3.79e-06,27300
B13,0.866,2.21e-05,25500
B14,0.759,4.7e-05,61900
B15,6.48,0.000222,34300
B16,9.31,0.000586,63000
B17,7.74,0.000542,70000
B18,1.47,5.71e-05,38800
B19,0.106,2.86e-06,27000

Binder,Kd [nM],koff [s⁻¹],kon [M⁻¹ s⁻¹]
B20,8.49,0.000353,41600
B21,0.63,3.62e-05,57400
B22,6.6,0.00053,80300
B23,0.465,1.85e-05,39800
B24,0.353,7.31e-06,20700
B25,1.76,0.000158,89600
B26,3.8,0.000207,54500
B27,3.71,0.00022,59500
B28,9.41,0.00034,36100
B29,0.765,5.3e-05,69300
B30,7.95,0.000331,41700
B31,3.41,0.000198,58000
B32,0.832,4.31e-05,51800
B33,3.29,0.000118,36000
B34,5.21,0.000208,39900
B35,0.254,1.72e-05,67700
B36,1.08,4.72e-05,43600
B37,1.85,4.05e-05,21900
B38,0.821,6.8e-05,82800
